According to the supplement of paper PMC10724198:
± gives the standard deviation of the averaged measurements.

Legend:
Saccharomyces cerevisiae [1] = experiment: protein stability index of tFT-peptide fusion (C-terminal peptide) (PSI (0-1 scale)); higher = more stable (slower turnover)
Description: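 MPS profiling in S. cerevisiae of the tFT-X12 degron library: putative degron peptides plus stable controls, 12 aa, fused to the C-terminus of a sfGFP-mCherry timer. Cells are FACS-sorted into 8 mCherry/sfGFP bins and deep-sequenced. PSI runs from 0 (unstable) to 1 (stable). Backgrounds are wild type, das1Δ and doa10Δ at 30 °C, and wild type, das1Δ, cdc34-1 and cdc53-1 at 37 °C; 2-3 technical replicates each.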

Saccharomyces cerevisiae [2] = experiment: as above; conditions: genetic background: wild type; temperature: 30 C
[3] = genetic background: cdc34-1, temperature: 37 C
[4] = genetic background: cdc53-1, temperature: 37 C
[5] = genetic background: das1 deletion, temperature: 30 C
[6] = genetic background: das1 deletion, temperature: 37 C
[7] = genetic background: doa10 deletion, temperature: 30 C
[8] = genetic background: wild type, temperature: 30 C
[9] = genetic background: wild type, temperature: 37 C
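Also: PSI is a weighted mean of sequencing reads over stability bins, variants kept only with over 10 reads, mCherry proximal and sfGFP distal, peptide attached via GGGS linker.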

Sequence: WISDRCPSVLCY
- protein stability index (Saccharomyces cerevisiae [1]; [3]): 0.0407 ± 0.0022
- protein stability index (Saccharomyces cerevisiae [1]; [4]): 0.0838 ± 0.0009
- protein stability index (Saccharomyces cerevisiae [1]; [5]): 0.185 ± 0.025
- protein stability index (Saccharomyces cerevisiae [1]; [6]): 0.206 ± 0.011
- protein stability index (Saccharomyces cerevisiae [1]; [7]): 0.143 ± 0.011
- protein stability index (Saccharomyces cerevisiae [1]; [8]): 0.157 ± 0.028
- protein stability index (Saccharomyces cerevisiae [1]; [9]): 0.184 ± 0.017
- protein stability index (Saccharomyces cerevisiae [2]): 0.251 ± 0.015

Sequence: CVSFFRCLFLIV
- protein stability index (Saccharomyces cerevisiae [1]; [3]): 0.217 ± 0.0061
- protein stability index (Saccharomyces cerevisiae [1]; [4]): 0.231 ± 0.019
- protein stability index (Saccharomyces cerevisiae [1]; [5]): 0.302 ± 0.028
- protein stability index (Saccharomyces cerevisiae [1]; [6]): 0.3805 ± 0.00051
- protein stability index (Saccharomyces cerevisiae [1]; [7]): 0.193 ± 0.0083
- protein stability index (Saccharomyces cerevisiae [1]; [8]): 0.144 ± 0.013
- protein stability index (Saccharomyces cerevisiae [1]; [9]): 0.194 ± 0.017
- protein stability index (Saccharomyces cerevisiae [2]): 0.168 ± 0.0043

Sequence: NFSLFVHFLGLC
- protein stability index (Saccharomyces cerevisiae [1]; [3]): 0.668 ± 0.047
- protein stability index (Saccharomyces cerevisiae [1]; [4]): 0.703 ± 0.024
- protein stability index (Saccharomyces cerevisiae [1]; [5]): 0.606 ± 0.021
- protein stability index (Saccharomyces cerevisiae [1]; [6]): 0.687 ± 0.027
- protein stability index (Saccharomyces cerevisiae [1]; [7]): 0.361 ± 0.0091
- protein stability index (Saccharomyces cerevisiae [1]; [8]): 0.399 ± 0.023
- protein stability index (Saccharomyces cerevisiae [1]; [9]): 0.608 ± 0.025
- protein stability index (Saccharomyces cerevisiae [2]): 0.445 ± 0.052

Sequence: FLLLVFGLLIDS
- protein stability index (Saccharomyces cerevisiae [1]; [3]): 0.183 ± 0.004
- protein stability index (Saccharomyces cerevisiae [1]; [5]): 0.246 ± 0.067
- protein stability index (Saccharomyces cerevisiae [1]; [6]): 0.413 ± 0.022
- protein stability index (Saccharomyces cerevisiae [1]; [7]): 0.188 ± 0.017
- protein stability index (Saccharomyces cerevisiae [1]; [8]): 0.222 ± 0.03
- protein stability index (Saccharomyces cerevisiae [1]; [9]): 0.379 ± 0.11
- protein stability index (Saccharomyces cerevisiae [2]): 0.338 ± 0.016

Sequence: IFAVLVSGSFFF
- protein stability index (Saccharomyces cerevisiae [1]; [3]): 0.425 ± 0.018
- protein stability index (Saccharomyces cerevisiae [1]; [4]): 0.541 ± 0.014
- protein stability index (Saccharomyces cerevisiae [1]; [5]): 0.324 ± 0.051
- protein stability index (Saccharomyces cerevisiae [1]; [6]): 0.545 ± 0.017
- protein stability index (Saccharomyces cerevisiae [1]; [7]): 0.318 ± 0.0053
- protein stability index (Saccharomyces cerevisiae [1]; [8]): 0.336 ± 0.041
- protein stability index (Saccharomyces cerevisiae [1]; [9]): 0.509 ± 0.017
- protein stability index (Saccharomyces cerevisiae [2]): 0.4288 ± 0.00067

Sequence: FALFCFVIFMSR
- protein stability index (Saccharomyces cerevisiae [1]; [3]): 0.22 ± 0.05
- protein stability index (Saccharomyces cerevisiae [1]; [4]): 0.373 ± 0.1
- protein stability index (Saccharomyces cerevisiae [1]; [5]): 0.245 ± 0.081
- protein stability index (Saccharomyces cerevisiae [1]; [6]): 0.398 ± 0.034
- protein stability index (Saccharomyces cerevisiae [1]; [7]): 0.277 ± 0.028
- protein stability index (Saccharomyces cerevisiae [1]; [8]): 0.227 ± 0.068
- protein stability index (Saccharomyces cerevisiae [1]; [9]): 0.381 ± 0.063
- protein stability index (Saccharomyces cerevisiae [2]): 0.363 ± 0.06

Sequence: RVFGWIEVEVEG
- protein stability index (Saccharomyces cerevisiae [1]; [3]): 0.5179 ± 0.001
- protein stability index (Saccharomyces cerevisiae [1]; [4]): 0.565 ± 0.019
- protein stability index (Saccharomyces cerevisiae [1]; [5]): 0.403 ± 0.023
- protein stability index (Saccharomyces cerevisiae [1]; [6]): 0.5679 ± 0.0026
- protein stability index (Saccharomyces cerevisiae [1]; [7]): 0.346 ± 0.018
- protein stability index (Saccharomyces cerevisiae [1]; [8]): 0.386 ± 0.054
- protein stability index (Saccharomyces cerevisiae [1]; [9]): 0.584 ± 0.007
- protein stability index (Saccharomyces cerevisiae [2]): 0.489 ± 0.079

Sequence: LFFFRLFVFWVF
- protein stability index (Saccharomyces cerevisiae [1]; [3]): 0.195 ± 0.034
- protein stability index (Saccharomyces cerevisiae [1]; [4]): 0.173 ± 0.037
- protein stability index (Saccharomyces cerevisiae [1]; [5]): 0.238 ± 0.021
- protein stability index (Saccharomyces cerevisiae [1]; [6]): 0.369 ± 0.01
- protein stability index (Saccharomyces cerevisiae [1]; [7]): 0.173 ± 0.014
- protein stability index (Saccharomyces cerevisiae [1]; [8]): 0.157 ± 0.023
- protein stability index (Saccharomyces cerevisiae [1]; [9]): 0.251 ± 0.0066
- protein stability index (Saccharomyces cerevisiae [2]): 0.203 ± 0.0063

Sequence: NFCVLLQFCVLV
- protein stability index (Saccharomyces cerevisiae [1]; [3]): 0.437 ± 0.023
- protein stability index (Saccharomyces cerevisiae [1]; [4]): 0.477 ± 0.023
- protein stability index (Saccharomyces cerevisiae [1]; [5]): 0.36 ± 0.024
- protein stability index (Saccharomyces cerevisiae [1]; [6]): 0.4832 ± 0.0002
- protein stability index (Saccharomyces cerevisiae [1]; [7]): 0.364 ± 0.017
- protein stability index (Saccharomyces cerevisiae [1]; [8]): 0.36 ± 0.02
- protein stability index (Saccharomyces cerevisiae [1]; [9]): 0.448 ± 0.0074
- protein stability index (Saccharomyces cerevisiae [2]): 0

Sequence: FFSRIIAILVLM
- protein stability index (Saccharomyces cerevisiae [1]; [3]): 0.37 ± 0.071
- protein stability index (Saccharomyces cerevisiae [1]; [4]): 0.453 ± 0.014
- protein stability index (Saccharomyces cerevisiae [1]; [5]): 0.337 ± 0.024
- protein stability index (Saccharomyces cerevisiae [1]; [6]): 0.515 ± 0.016
- protein stability index (Saccharomyces cerevisiae [1]; [7]): 0.135 ± 0.011
- protein stability index (Saccharomyces cerevisiae [1]; [8]): 0.144 ± 0.0086
- protein stability index (Saccharomyces cerevisiae [1]; [9]): 0.192 ± 0.035
- protein stability index (Saccharomyces cerevisiae [2]): 0.23 ± 0.031

Sequence: WFLRLVGAVFAL
- protein stability index (Saccharomyces cerevisiae [1]; [3]): 0.539 ± 0.012
- protein stability index (Saccharomyces cerevisiae [1]; [4]): 0.624 ± 0.039
- protein stability index (Saccharomyces cerevisiae [1]; [5]): 0.528 ± 0.016
- protein stability index (Saccharomyces cerevisiae [1]; [6]): 0.621 ± 0.018
- protein stability index (Saccharomyces cerevisiae [1]; [7]): 0.46 ± 0.0085
- protein stability index (Saccharomyces cerevisiae [1]; [8]): 0.485 ± 0.025
- protein stability index (Saccharomyces cerevisiae [1]; [9]): 0.551 ± 0.032
- protein stability index (Saccharomyces cerevisiae [2]): 0.447 ± 0.027

Sequence: VLRLVLFVLISV
- protein stability index (Saccharomyces cerevisiae [1]; [3]): 0.311 ± 0.065
- protein stability index (Saccharomyces cerevisiae [1]; [4]): 0.348 ± 0.019
- protein stability index (Saccharomyces cerevisiae [1]; [5]): 0.277 ± 0.03
- protein stability index (Saccharomyces cerevisiae [1]; [6]): 0.387 ± 0.016
- protein stability index (Saccharomyces cerevisiae [1]; [7]): 0.2853 ± 0.0015
- protein stability index (Saccharomyces cerevisiae [1]; [8]): 0.268 ± 0.015
- protein stability index (Saccharomyces cerevisiae [1]; [9]): 0.352 ± 0.016
- protein stability index (Saccharomyces cerevisiae [2]): 0.337 ± 0.0069

Sequence: SMPWFWFVRGIG
- protein stability index (Saccharomyces cerevisiae [1]; [3]): 0.497 ± 0.041
- protein stability index (Saccharomyces cerevisiae [1]; [4]): 0.531 ± 0.0014
- protein stability index (Saccharomyces cerevisiae [1]; [5]): 0.5 ± 0.017
- protein stability index (Saccharomyces cerevisiae [1]; [6]): 0.557 ± 0.0094
- protein stability index (Saccharomyces cerevisiae [1]; [7]): 0.438 ± 0.032
- protein stability index (Saccharomyces cerevisiae [1]; [8]): 0.417 ± 0.013
- protein stability index (Saccharomyces cerevisiae [1]; [9]): 0.5186 ± 0.0039
- protein stability index (Saccharomyces cerevisiae [2]): 0.461 ± 0.0082

Sequence: VVFVVGAPPVLC
- protein stability index (Saccharomyces cerevisiae [1]; [3]): 0.476 ± 0.018
- protein stability index (Saccharomyces cerevisiae [1]; [4]): 0.481 ± 0.036
- protein stability index (Saccharomyces cerevisiae [1]; [5]): 0.359 ± 0.024
- protein stability index (Saccharomyces cerevisiae [1]; [6]): 0.532 ± 0.013
- protein stability index (Saccharomyces cerevisiae [1]; [7]): 0.323 ± 0.016
- protein stability index (Saccharomyces cerevisiae [1]; [8]): 0.365 ± 0.0082
- protein stability index (Saccharomyces cerevisiae [1]; [9]): 0.5068 ± 0.0019
- protein stability index (Saccharomyces cerevisiae [2]): 0.4834 ± 0.0027

Sequence: SFIFFVSCFFIF
- protein stability index (Saccharomyces cerevisiae [1]; [3]): 0.274 ± 0.043
- protein stability index (Saccharomyces cerevisiae [1]; [4]): 0.378 ± 0.011
- protein stability index (Saccharomyces cerevisiae [1]; [5]): 0.294 ± 0.029
- protein stability index (Saccharomyces cerevisiae [1]; [6]): 0.451 ± 0.024
- protein stability index (Saccharomyces cerevisiae [1]; [7]): 0.263 ± 0.0092
- protein stability index (Saccharomyces cerevisiae [1]; [8]): 0.266 ± 0.017
- protein stability index (Saccharomyces cerevisiae [1]; [9]): 0.416 ± 0.016
- protein stability index (Saccharomyces cerevisiae [2]): 0.3325 ± 0.0024

Sequence: RCCWWNAQAVWR
- protein stability index (Saccharomyces cerevisiae [1]; [3]): 0.725 ± 0.043
- protein stability index (Saccharomyces cerevisiae [1]; [4]): 0.7494 ± 0.0045
- protein stability index (Saccharomyces cerevisiae [1]; [5]): 0.638 ± 0.029
- protein stability index (Saccharomyces cerevisiae [1]; [6]): 0.752 ± 0.0039
- protein stability index (Saccharomyces cerevisiae [1]; [7]): 0.655 ± 0.016
- protein stability index (Saccharomyces cerevisiae [1]; [8]): 0.631 ± 0.032
- protein stability index (Saccharomyces cerevisiae [1]; [9]): 0.73 ± 0.023
- protein stability index (Saccharomyces cerevisiae [2]): 0.578 ± 0.15

Sequence: LSRLIFKVSVLM
- protein stability index (Saccharomyces cerevisiae [1]; [3]): 0.57 ± 0.0078
- protein stability index (Saccharomyces cerevisiae [1]; [4]): 0.602 ± 0.0096
- protein stability index (Saccharomyces cerevisiae [1]; [5]): 0.504 ± 0.026
- protein stability index (Saccharomyces cerevisiae [1]; [6]): 0.5999 ± 0.0032
- protein stability index (Saccharomyces cerevisiae [1]; [7]): 0.237 ± 0.032
- protein stability index (Saccharomyces cerevisiae [1]; [8]): 0.231 ± 0.025
- protein stability index (Saccharomyces cerevisiae [1]; [9]): 0.416 ± 0.038
- protein stability index (Saccharomyces cerevisiae [2]): 0.445 ± 0.015

Sequence: FVLLTFLFFWQF
- protein stability index (Saccharomyces cerevisiae [1]; [3]): 0.349 ± 0.014
- protein stability index (Saccharomyces cerevisiae [1]; [4]): 0.441 ± 0.028
- protein stability index (Saccharomyces cerevisiae [1]; [5]): 0.321 ± 0.031
- protein stability index (Saccharomyces cerevisiae [1]; [6]): 0.476 ± 0.019
- protein stability index (Saccharomyces cerevisiae [1]; [7]): 0.287 ± 0.007
- protein stability index (Saccharomyces cerevisiae [1]; [8]): 0.299 ± 0.018
- protein stability index (Saccharomyces cerevisiae [1]; [9]): 0.441 ± 0.016
- protein stability index (Saccharomyces cerevisiae [2]): 0.328 ± 0.03

Sequence: MLECIIHLTITR
- protein stability index (Saccharomyces cerevisiae [1]; [3]): 0.417 ± 0.072
- protein stability index (Saccharomyces cerevisiae [1]; [4]): 0.577 ± 0.095
- protein stability index (Saccharomyces cerevisiae [1]; [5]): 0.431 ± 0.038
- protein stability index (Saccharomyces cerevisiae [1]; [6]): 0.507 ± 0.011
- protein stability index (Saccharomyces cerevisiae [1]; [7]): 0.4306 ± 0.0039
- protein stability index (Saccharomyces cerevisiae [1]; [8]): 0.444 ± 0.038
- protein stability index (Saccharomyces cerevisiae [1]; [9]): 0.491 ± 0.019
- protein stability index (Saccharomyces cerevisiae [2]): 0.483 ± 0.025

Sequence: RIHRRLIKNKRV
- protein stability index (Saccharomyces cerevisiae [1]; [3]): 0.649 ± 0.021
- protein stability index (Saccharomyces cerevisiae [1]; [4]): 0.7 ± 0.02
- protein stability index (Saccharomyces cerevisiae [1]; [5]): 0.71 ± 0.036
- protein stability index (Saccharomyces cerevisiae [1]; [6]): 0.739 ± 0.041
- protein stability index (Saccharomyces cerevisiae [1]; [7]): 0.155 ± 0.028
- protein stability index (Saccharomyces cerevisiae [1]; [8]): 0.156 ± 0.038
- protein stability index (Saccharomyces cerevisiae [1]; [9]): 0.377 ± 0.023
- protein stability index (Saccharomyces cerevisiae [2]): 0.162 ± 0.086
